# Measured values published in article PMC12041529.
# B1: glycoprotein nonmetastatic melanoma protein B (GPNMB): GPNMB296Q (protein)
# parent chain: MECLYYFLGFLLLAARLPLDAAKRFHDVLGNERPSAYMREHNQLNGWSSDENDWNEKLYPVWKRGDMRWKNSWKGGRVQAVLTSDSPALVGSNITFAVNLIFPRCQKEDANGNIVYEKNCRNEAGLSADPYVYNWTAWSEDSDGENGTGQSHHNVFPDGKPFPHHPGWRRWNFIYVFHTLGQYFQKLGRCSVRVSVNTANVTLGPQLMEVTVYRRHGRAYVPIAQVKDVYVVTDQIPVFVTMFQKNDRNSSDETFLKDLPIMFDVLIHDPSHFLNYSTINYKWSFGDNTGLFVSTNHTVNHTYVLNGTFSLNLTVKAAAPGPCPPPPPPPRPSKPTPSLATTLKSYDSNTPGPAGDNPLELSRIPDENCQINRYGHFQATITIVEGILEVNIIQMTDVLMPVPWPESSLIDFVVTCQGSIPTEVCTIISDPTCEITQNTVCSPVDVDEMCLLTVRRTFNGSGTYCVNLTLGDDTSLALTSTLISVPDRDPASPLRMANSALISVGCLAIFVTVISLLVYKKHKEYNPIENSPGNVVRSKGLSVFLNRAKAVFFPGNQEKDPLLKNQEFKGVS
# Experiment: western blot, co-transfected HEK293T
# Conditions: glycan lost; control: Flag-GPNMB (WT)
protein,measurement,value
B1,other: SNAP29 protein level,decreases
